Measured values: doi:10.1101/2020.12.10.419556

Assays:
Experiment in all cases: loss of red fluorescence after photoconversion
[1] = biological target: PhoCl1 empty barrel fragment (residues 1-231), from pBAD/HisB constructs
[2] = biological target: PhoCl1.5f-MVL empty barrel fragment (residues 1-231)
[3] = biological target: PhoCl2f empty barrel fragment (residues 1-231)

dissociation t1/2 [1]: 9.5 min
red fluorescence remaining after dissociation [2]: 60%
dissociation t1/2 [3]: 1.27 min
Substance: PhoCl C-terminal peptide fragment (residues 232-242), from pBAD/HisB PhoCl variants
